Tests used:
[1] = target: Tm1570 domain of CnTrmD-Tm1570 (residues 241-433) (Calditerrivibrio nitroreducens); test: SEC; preparative Superdex 75 column; running buffer 50 mM Hepes, 300 mM NaCl, 10% glycerol, 1 mM TCEP, pH 7.4; proteins refolded from urea; oligomer state judged by retention volumes
[2] = target: the molecule itself; test: as above

| Molecule | stoichiometry N [2] | further results |
| --- | --- | --- |
| Tm1570 domain of CnTrmD-Tm1570 (residues 241-433) (domain or fragment) | – | stoichiometry N [1]: 2 |
| TrmD domain of CnTrmD-Tm1570 (residues 1-240) (domain or fragment, Calditerrivibrio nitroreducens, UniProt E4THH1 1-240, looked up, TrmD domain of TrmD-Tm1570 of Calditerrivibrio nitroreducens, UniProtKB E4THH1, residues 1-240; 27.5 kDa monomer; Truncated version of m1) MKRYNVITIFPEMINEIFKYGVLSKGIDIGLFRVNPINLRDYTEDKHKTVDDYQYGGGHGLVMKPEPIYKAIADLKSKKDTHVVFLDPRGEQFTQKTAERLYNYDDITFVCGRYEGIDDRVRELMADEMISIGDFVITGGELAAVTIIDAVARLIPGVLGDENSPNEESFTTGLLEYPHFTRPAEFMGKKVPEVLISGNHEEIRRWRLTESIKTTLQNRPDMILRKSLSREEEQILWSLT | 2 | – |
| single-domain EcTrmD (enzyme, E. coli (from the label EcTrmD), UniProt P0A873 1-255, looked up, tRNA methyltransferase D (TrmD), single-domain protein, labelled EcTrmD; 28.4 kDa monomer; The printed monomer mass of 28.4 kDa fits the whole protein) MWIGIISLFPEMFRAITDYGVTGRAVKNGLLSIQSWSPRDFTHDRHRTVDDRPYGGGPGMLMMVQPLRDAIHAAKAAAGEGAKVIYLSPQGRKLDQAGVSELATNQKLILVCGRYEGIDERVIQTEIDEEWSIGDYVLSGGELPAMTLIDSVSRFIPGVLGHEASATEDSFAEGLLDCPHYTRPEVLEGMEVPPVLLSGNHAEIRRWRLKQSLGRTWLRRPELLENLALTEEQARLLAEFKTEHAQQQHKHDGMA | – | binding result [2]: binds |
| TrmD-Tm1570 fusion protein from Calditerrivibrio nitroreducens (enzyme, UniProt E4THH1 1-433, looked up, TrmD-Tm1570 (PF01746-PF09936 architecture) of Calditerrivibrio nitroreducens, UniProtKB E4THH1; full-length protein, residues 1-433 by the limits of the two truncated domains; 49.6 kDa monomer; Codon-optimized synthetic gene in pET28b; further details of the constructs are in SI Materials and Methods; also called CnTrmD-Tm1570; fusion TrmD-Tm1570) MKRYNVITIFPEMINEIFKYGVLSKGIDIGLFRVNPINLRDYTEDKHKTVDDYQYGGGHGLVMKPEPIYKAIADLKSKKDTHVVFLDPRGEQFTQKTAERLYNYDDITFVCGRYEGIDDRVRELMADEMISIGDFVITGGELAAVTIIDAVARLIPGVLGDENSPNEESFTTGLLEYPHFTRPAEFMGKKVPEVLISGNHEEIRRWRLTESIKTTLQNRPDMILRKSLSREEEQILWSLTRGVQRKYNIYVALMHYPMRDKEGKVVTTSITNMDLHDISRSCRTFGVKNYFVVNPMPAQREIASRVVRHWIKGYGATYNENRKEAFEYTIITDSLASVIKSIEEKESGSPIIIATTARYQQKAISIEKLKEIADRPILLLFGTGWGFVDDILEFADYVLKPIHGVGDFNHLSVRSAVAIYLDRINRSFQEDIL | 2 | – |

— PMC11187310, “Are there double knots in proteins? Prediction and in vitro verification based on TrmD-Tm1570 fusion from C. nitroreducens” (Frontiers in Molecular Biosciences, 2023)
